According to patent publication US20200109169A1 (BGI SHENZHEN, published 2020):

B1: wild-type polypeptide PLAFLIFNI (SEQ ID NO: 7) (peptide)
peptide: PLAFLIFNI
notes: Made by solid phase synthesis
B2: mutant polypeptide's variant TMAFLIFNI (SEQ ID NO: 2) (peptide)
peptide: TMAFLIFNI
notes: Made by solid phase synthesis
B3: mutant polypeptide's variant TMAFLIFNV (SEQ ID NO: 6) (peptide)
peptide: TMAFLIFNV
notes: Made by solid phase synthesis
B4: mutant polypeptide's variant TLAFLIFNV (SEQ ID NO: 3) (peptide)
peptide: TLAFLIFNV
notes: Made by solid phase synthesis
B5: mutant polypeptide TLAFLIFNI (SEQ ID NO: 1) (peptide)
peptide: TLAFLIFNI
notes: Made by solid phase synthesis, purity >90% by HPLC
B6: mutant polypeptide's variant TLAFLIFNL (SEQ ID NO: 4) (peptide)
peptide: TLAFLIFNL
notes: Made by solid phase synthesis
B7: mutant polypeptide's variant TMAFLIFNL (SEQ ID NO: 5) (peptide)
peptide: TMAFLIFNL
notes: Made by solid phase synthesis

The binders below were run against T1, HLA-A0201 on the surface of T2 cells (human) (assay: T2 cell peptide loading, flow cytometry with anti-HLA-A*02:01 FITC antibody, peptide 100 uM).
T1 construct: MHC class I molecule on T2 cells; surface HLA-A*02:01 was read with an anti-HLA-A*02:01 FITC monoclonal antibody after overnight loading with peptide
Protocol: After centrifugation at 200 g for 5 minutes for cell collection, the collected cells were washed with phosphate buffer saline (PBS) buffer twice, before incubated with anti-HLA-A*02:01 FITC monoclonal antibody at 4° C. for 30 minutes. The mean fluorescence intensity of cells was then detected and analyzed by the flow cytometry (BD FACSJazz™)) and its software.
For B1, the “FI (fluorescence index)” value was 1.63 and the Mean fluorescence intensity was 650. With B2 the “FI (fluorescence index)” value was 1.67 and the Mean fluorescence intensity was 660. B3 was tested, and the “FI (fluorescence index)” value was 1.74 and the Mean fluorescence intensity was 677. For B4, the “FI (fluorescence index)” value was 1.51 and the Mean fluorescence intensity was 620. B5 was tested, and the “FI (fluorescence index)” value was 1.6 and the Mean fluorescence intensity was 643. For B6, the “FI (fluorescence index)” value was 1.49 and the Mean fluorescence intensity was 615. For B7, the “FI (fluorescence index)” value was 1.79 and the Mean fluorescence intensity was 690.
